Measurements reported in patent publication US20260125454A1 (SHANGHAI JUNSHI BIOSCIENCES, published 2026).
Read-outs that look alike come from different tables or passages of the source.

T1: Biotin-huCGRPaSA (human, not fully specified; biotin (position not given))
T1 construct: exact construct ('aSA') not explained; also called Biotin CGRPaSA; full-length (1-37) CGRP
T1 peptide: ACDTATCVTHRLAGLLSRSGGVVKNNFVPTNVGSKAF

T2: human β-CGRP (human, UniProt P10092 82-118, not fully specified)
T2 construct: mature; also called human full-length (1-37) β-CGRP polypeptide (Anaspec)
T2 peptide (looked up): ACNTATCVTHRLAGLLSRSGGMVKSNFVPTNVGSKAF

T3: synthetic human α-CGRP polypeptide (SEQ ID NO: 97)-NH2 (human, C-terminal phenylalanine amide (F-NH2); one intrachain disulfide bond between the two CYS residues (printed as positions 7 and 12))
T3 construct: Analyte in solution (50 nM) in the pH-dependence BLI assay
T3 peptide: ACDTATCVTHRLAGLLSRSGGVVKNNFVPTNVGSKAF


Key:
CGRP antigen [1] = assay: cell-based or functional assay
Biotin-huCGRPaSA [2] = molecular target: T1, Biotin-huCGRPaSA; assay: ELISA, transfection supernatant, biotin-CGRP on streptavidin
Experimental: Streptavidin was diluted to 0.5 μg/mL by using PBS (Hyclone) and added into a plate at 100 μL/well. The plate was incubated in a thermostat incubator at 37° C. for 90 min and then washed. 2% BSA was added to the plate at 200 μL/well, and the plate was incubated in the thermostat incubator at 37° C. for 90 min and washed. Biotin-huCGRPaSA was diluted to 2.0 μg/mL with 2% BSA and added into the plate at 100 μL/well, and the plate was incubated in the thermostat incubator at 37° C. for 60 min. The reference antibody (47-RM) was diluted to 2500 ng/ml with a diluent (2% BSA) and serially 4-fold diluted to 0.15 ng/mL, and the chimeric antibodies were diluted with a cell supernatant stock solution. All the chimeric antibody solutions and the reference antibody solution were added into plates at 80 μL/well, and the plates were incubated in a thermostat incubator at 37° C. for 60 min and washed. An HRP-conjugated mouse anti-human antibody IgG4 (manufacturer: Southern Biotech, Cat. No. 9200-05; Fc specificity) was diluted 5000-fold with 2% BSA and added into the plates at 100 μL/well, and the plates were incubated in the thermostat incubator at 37° C. for 60 min and washed. 0.1 mg/mL chromogenic reagent TMB was carefully added at 100 μL/well to avoid bubbles, and the system was incubated at 37° C. for 10 min away from light for chromogenic reaction. Finally, a 2 M hydrochloric acid solution was added at 100 μL/well to stop the reaction while avoiding bubbles, and the plates were read on a microplate reader within 10 min (the detection wavelength was 450 nm; the reference wavelength was 620 nm).

Biotin-huCGRPaSA [3] = molecular target: T1, Biotin-huCGRPaSA; assay: ELISA, purified antibody; relative to reference 47-RM-20190815
Experimental: Streptavidin was diluted to […] by using PBS (Hyclone) and added into a plate at 100 μL/well. The plate was incubated in a thermostat incubator at 37° C. for 90 min and then washed. 2% BSA was added to the plate at 200 μL/well, and the plate was incubated in the thermostat incubator at 37° C. for 90 min and washed. Biotin-huCGRPaSA was diluted to 2.0 μg/mL with 2% BSA and added into the plate at 100 μL/well, and the plate was incubated in the thermostat incubator at 37° C. for 60 min. The chimeric antibodies in Table 3 and reference antibody (47-RM-20190815) were diluted to 1000 ng/ml with a diluent (2% BSA) and serially 10-fold diluted to 1 ng/mL. All the chimeric antibody solutions and the reference antibody solution were added into plates at 100 μL/well, and the plates were incubated in a thermostat incubator at 37° C. for 60 min and washed. An HRP-conjugated mouse anti-human antibody IgG4 (manufacturer: Southern Biotech, Cat. No. 9200-05; Fc specificity) was diluted 5000-fold with 2% BSA and added into the plates at 100 μL/well, and the plates were incubated in the thermostat incubator at 37° C. for 60 min and washed. 0.1 mg/mL chromogenic reagent TMB was carefully added at 100 μL/well to avoid bubbles, and the system was incubated at 37° C. for 5 min away from light for chromogenic reaction. Finally, a 2 M hydrochloric acid solution was added at 100 μL/well to stop the reaction while avoiding bubbles, and the plates were read on a microplate reader within 10 min (the detection wavelength was 450 nm; the reference wavelength was 620 nm). EC₅₀ was fit by using a four-parameter logistic regression (4PL) model.

human β-CGRP = molecular target: T2, human β-CGRP; assay: ELISA, hybridoma supernatant
CGRP antigen [4] = assay: cell-based or functional assay; remark: listed apart in the source
CGRP antigen [5] = assay: cell-based or functional assay; remark: listed apart in the source
CGRP antigen [6] = assay: cell-based or functional assay; remark: listed apart in the source
[7] = molecular target: T3, synthetic human α-CGRP polypeptide (SEQ …); assay: BLI (Octet), antibody on AHC2, 50 nM CGRP; association pH 5.5, dissociation pH 5.5
Experimental: (§1) The association/dissociation profiles for three antibodies Hu224, galcanezumab analogue and fremanezumab analogue binding to the antigen human α-CGRP in solutions at different pH (7.4 and 5.5) were determined on an Octet RBD96e system. The pH 7.4 buffer contained 10 mM HEPES (pH 7.4), 150 mM sodium chloride, 3 mM EDTA, and 0.05% P20. The pH 5.5 buffer contained 10 mM NaAc (pH 5.5), 150 mM sodium chloride, and 0.05% P20. The three antibodies Hu224, galcanezumab analogue, and fremanezumab analogue were immobilized on the surfaces of AHC2 bioprobes (Sartorius, Cat. No. 18-5142) at 10 μg/mL, respectively. 50 nM human α-CGRPs diluted in different pH (7.4 and 5.5) buffers were used to bind to the antibodies during the 0 to 200 s antigen association phase, and different pH (7.4 and 5.5) buffers were used to wash during the 0 to 200 s antigen dissociation phase. The conditions were pH 7.4 association and pH 7.4 dissociation, pH 7.4 association and pH 5.5 dissociation, and pH 5.5 association and pH 5.5 dissociation. The binding signals of the antigen at the time of injection for 200 s were calculated using analytical software and fitted to give the dissociation constant kd. The amino acid sequence of the synthetic human α-CGRP polypeptide fragment is […] […]

Biotin-huCGRPaSA [8] = molecular target: T1, Biotin-huCGRPaSA; assay: ELISA, supernatant; relative to chimeric C245
Outline: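 Antibodies, including reference chimeric C245, titrated 2.5-fold from 1000 ng/mL and incubated 60 min at 37°C on wells coated with 1.0 μg/mL biotin-CGRPaSA and blocked with 2% BSA. Bound IgG detected with HRP anti-human Fc antibody and TMB, acid-stopped, absorbance 450/620 nm.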

[9] = molecular target: T3, synthetic human α-CGRP polypeptide (SEQ …); assay: BLI (Octet), antibody on AHC2, 50 nM CGRP; association pH 7.4, dissociation pH 5.5
Experimental: as §1

[10] = molecular target: T3, synthetic human α-CGRP polypeptide (SEQ …); assay: BLI (Octet), antibody on AHC2, 50 nM CGRP; association pH 7.4, dissociation pH 7.4
Experimental: as §1

Relative binding activity (%) vs Ref(Teva) (CGRP antigen [1])	OD value (Biotin-huCGRPaSA [2])	Relative activity (%) (Biotin-huCGRPaSA [3])	binding result (human β-CGRP)	Binder	also measured
74.1%	3.06 OD	31.7%		C117 (antibody, V domains shown, 2B8-HC1 + 1A2-LC2; chimeric, human constant regions) VH: EVQLQQSGPELVKPGASVKISCKASGYTFTDYNMHWVKQSHGKSLEWIGNIYPYNGGTVYNQKFNNKATLTVHTSSSTAYMDLRSLTSDDSAVYYCAREGLGGYWGQGTTLTVSS VL: DIVLTQSPASLAVSLGQRATISCKASQNIDYDGYAYLNWYQQKPGQPPKVLIYSVFNLESGIPARFSGSGSGTDFTLNIHPVEEEDAATYYCQQSNEFPYTFGGGTKLEVK	
			binds	3E5 (antibody, V domains shown, murine hybridoma supernatant; also called hybridoma antibody 3E5) VH: EVQLQQSGPELVKPGASVKISCKTSGYTFTDYNMHWVKQSHGKSLEWIGYISPYNGGTAYNQKFKFKSTLTVDTSSSTAYMELRSLTSEDSAVYYCAREGLGGYWGQGTTLTVSS VL: DIVLTQSPASLAVSLGQRATISCKASQNIDYDGYTYLNWYQQKPGQPPKVLIYSIFNLESGIPARFSGSGSGTDFTLNIHPVEEEDAATYYCQQSNEVPYTFGGGTKLEIK	
	2.91 OD	101%		C269 (antibody, V domains shown, 3E5-HC + 3E5-LC; chimeric, human constant regions) VH: EVQLQQSGPELVKPGASVKISCKTSGYTFTDYNMHWVKQSHGKSLEWIGYISPYNGGTAYNQKFKFKSTLTVDTSSSTAYMELRSLTSEDSAVYYCAREGLGGYWGQGTTLTVSS VL: DIVLTQSPASLAVSLGQRATISCKASQNIDYDGYTYLNWYQQKPGQPPKVLIYSIFNLESGIPARFSGSGSGTDFTLNIHPVEEEDAATYYCQQSNEVPYTFGGGTKLEIK	EC50 (so labelled in the table under the curves; half-maximal inhibition of the CGRP-induced luciferase signal in SK-N-MC CRE 2E9 reporter cells, CGRP antigen at 4 ng/mL) (CGRP antigen [4]): 0.143 mg/L
			binds	3C1 (antibody, V domains shown, murine hybridoma supernatant; also called hybridoma antibody 3C1) VH: EVQLQQSGPELVKPGASMKISCKASGYSFTGYTMNWVKQSHGNNLEWIGLINPYIGNTHYNQKFKDKATFTVDRSSSTAYMALLSLTSEDSAVYYCARELDSGFDYWGQGTTLTVSS VL: DVLMTQTPLSLPVSLGDQASLSCRSSQNIVHSNGDTYLEWYLQKPGQSPKLLIYKVSNRFSGVPDRFSGSGSGTDFTLKISRVEAEDLGVYYCYQGSHVPWTFGGGTKLEIK	
71.1%	3.03 OD	59.8%		C79 (antibody, V domains shown, 1F5-HC + 2B8-LC2; chimeric, human constant regions) VH: EVQLQQSGPELVKPGASVKISCKTSGYTFIDFNMHWVKQSHGKSLEWIGYIYPYNGDVVYNQNFTNKATLTVDSSSSTAYMELRRVTSEDSAIYYCAREGLGGYWGQGTTLTVSS VL: DVVLTQSPTSLAVSLGQRATISCQASQNIDGNTYMNWYQQKPGQPPKVLIYSIFNLESGIPARFSGSGSGTHFTLTIHPVEEEDAATYYCQQSNDYPYTFGGGTKLEIK	Relative binding activity (%) vs Ref(Teva) (CGRP antigen [5]): 71.1%
				hu224 (antibody, human IgG4 S228P, kappa, V domains shown) VH: QVQLVQSGAEVKKPGASVKVSCKASGYSFTGYTMNWVRQAPGQRLEWMGLINPYIGNTHYNQKFKDRVTFTVDRSSSTAYMELSSLRSEDTAVYYCARELDSGFDYWGQGTLVTVSS VL: DVVMTQSPDSLAVSLGERATINCRSSQNIVHSNGDTYLEWYQQKPGQPPKLLIYKVSNRFSGVPDRFSGSGSGTDFTLTISSLQAEDVAVYYCYQGSHVPWTFGQGTKLEIKR	IC50 (CGRP antigen [6]): 0.0224 mg/L; relative activity (%) vs C245 (CGRP antigen [6]): 80%; koff [7]: 0.0141 s⁻¹; Relative binding activity, % (Biotin-huCGRPaSA [8]): 82%; koff [9]: 0.0143 s⁻¹; koff [10]: 0.000265 s⁻¹
